Assay results taken from patent US20230365699A1 (published 2023).

T1: human BCMA (B-cell maturation antigen) expressed on cells (human, UniProt Q02223 1-184)
T1 construct: whole, on cells; also called hBCMA; hBCMA/HEK293 cell line
T1 sequence (looked up): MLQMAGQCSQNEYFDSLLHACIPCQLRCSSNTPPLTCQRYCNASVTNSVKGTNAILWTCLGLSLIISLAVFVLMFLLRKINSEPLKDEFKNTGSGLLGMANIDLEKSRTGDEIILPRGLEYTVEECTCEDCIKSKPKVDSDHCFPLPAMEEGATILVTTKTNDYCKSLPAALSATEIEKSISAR


Experiments:
[1] = target: human BCMA (B-cell maturation antigen) expressed on cells (human) (UniProt Q02223); test: flow cytometry, hBCMA-expressing HEK293 cells against parental HEK293 cells
[2] = target: T1, human BCMA (B-cell maturation antigen) …; test: flow cytometry on hBCMA-expressing HEK293 cells
[3] = target: T1, human BCMA (B-cell maturation antigen) …; test: flow cytometry, hBCMA-overexpressing HEK293 compared with OPM2 and RPMI-8226 cells

Row | Binder | fold selective binding (hBCMA-expressing HEK293 over parental HEK293) [1] [fold] | also measured
1 | BCMA-18 scFv (scFv) scFv: EVQLLESGGGLVQPGGSLRLSCAASGFTFSSYWMSWHRQAPGKGPEWVAHINQDGSEKYYVDSVKGRFTISRDNAESSLYLQMNSLRAEDTAVYYCARWLAVTNWGQGTLVTVSSGGGGSGGGGSGGGGSQSVLTQPPSASGTPGQRVTISCSGSGSNIGSNDVSWYQQIPGTAPKLLIYWNDQRPSGVPDRFSGSKSGTSASLAISGLRSEDEADYYCAAWDDSLNGWVFGGGTKLTVL | 2.2 | 
2 | BCMA-21 scFv (scFv) scFv: EVQLVESGGGLVKPGGSLKLSCAASGFTFSDYYMSWIRQAPGKGLEWVSYISSSGSTIYYADSVKGRFTISRDNAKNSLYLQMNSLRAEDTAVYYCAKVDGGYTEDYWGQGTLVTVSSGGGGSGGGGSGGGGSQSVLTQPPSASGTPGQRVTISCSGSGSNIGSNDVSWYQQIPGTAPKLLIYWNDQRPSGVPDRFSGSKSGISASLAISGLRSEDEADYYCAAWDDSLNGYVFGTGTKVTVL | 3.4 | 
3 | BCMA-13 scFv (scFv) scFv: QMQLVQYGGGVVQPGRSLRLSCAASGFTFSSYAMHWVRQAPGKGLEWVAVISYDGSNKYYADSVKGRFTISRDNSKNTLYLQMNSLKAEDTAVYYCATLPGRDGYPGAFDYRGQGTLVTVSSGGGGSGGGGSGGGGSQAVLTQPPSASGTPGQRVTISCSGSGSNIGSNDVSWYQQIPGTAPKLLIYWNDQRPSGVPDRFSASKSGTSASLAISGLRSEDEADYYCAAWDDSLGGSWVFGGGTKVTVL |  | binding result [2]: no binding
4 | BCMA-20 scFv (scFv) scFv: EVQLLESGGGLVQPGRSLRLSCAASGFTFDDYAMHWVRQAPGKGLEWVSGISWNSGSIGYADSVKGRFTISRDNAKNSLYLQMNSLRAEDTALYYCAKGGLGITPYYFDYWGQGTLVTVSSGGGGSGGGGSGGGGSQPVLTQPPSASGTPGQRVTISCSGGKTVNWFRQVPGTAPQLLIYSNDQRPSGVPDRFSGSKSGSSASLDISGLQSEDEAYYYCGSWDDSLNAWVFGGETKLTVL | 10.8 | 
5 | BCMA-30 scFv (scFv, V domains shown) VH: QVQLVQSGGGLVQPGRSLRLSCAASGFTFGDYAMHWVRQAPGKGLEWVSGISWNSGSIGYADSVKGRFTISRDNAKNSLYLQMNSLRAEDTAVYYCARDLDPDDAFDIWGQGTMVTVSS |  | binding result [3]: binds
6 | BCMA-22 scFv (scFv) scFv: EVQLVESGGGLVKPGGSLRLSCAASGFTFSDYYMSWIRQAPGKGLEWVSYISSSGSTIYYADSVKGRFTISRDNAKNSLYLQMNSLRAEDTAVYYCAKVDGDYTEDYWGQGTLVTVSSGGGGSGGGGSGGGGSQSALTQPASVSGSPGQSITISCTGSSSDVGKYNLVSWYQQPPGKAPKLIIYDVNKRPSGVSNRFSGSKSGNTATLTISGLQGDDEADYYCCSYGGSRSYVFGTGTKVTVL | 7.5 | 
